Results on 78 sequences are retold here after the supplement of paper PMC10724198.

± gives the standard deviation of the averaged measurements.
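Note: PSI is a weighted mean of sequencing reads over stability bins, variants kept only with over 10 reads, mCherry proximal and sfGFP distal, peptide attached via GGGS linker.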

The data set relates to Saccharomyces cerevisiae. As to the kind of experiment: protein stability index of tFT-peptide fusion (C-terminal peptide) (PSI (0-1 scale)); higher = more stable (slower turnover). The conditions noted are these: genetic background: wild type; temperature: 30 C. As for the experimental part:
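Multiplexed protein stability (MPS) profiling in S. cerevisiae. Random 12-aa peptides (tFT-X12 library) are fused to the C-terminus of a sfGFP-mCherry tandem fluorescent timer, after mCherry and a GGGS linker. Cells are FACS-sorted into 8 mCherry/sfGFP bins and deep-sequenced. The protein stability index (PSI) is the read-weighted bin average, scaled from 0 (unstable) to 1 (stable). Only peptides with >10 reads are reported; cells were grown at 30 °C in SC-His with glucose.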
The sequence GHVGFSKVSGKG came in with a protein stability index of 0.664 ± 0.026. Next, GICLLRLDTFNI: 0.667 ± 0.1; GIFSGTDRNLVC: 0.7075 ± 0.0069. Next, GIGGSGLVSVVD: 0.716 ± 0.039. Under GIGLVIEDKLLL stands 0.683 ± 0.042; under GIGVRLGFWCRG, 0.75 ± 0.05.

The sequence GILVDGRGRGCR came in with a protein stability index of 0.735 ± 0.039. Under GIMFVSEPVLSS stands 0.664 ± 0.0025. Under GIPPFFTLCRLS stands 0.57 ± 0.034. In turn, GIRHSNLGQALE yielded a protein stability index of 0.686 ± 0.11. Under GITAWMAHPRSV stands 0.706 ± 0.012; under GIVGCDFLLFYF, 0.698 ± 0.018. Under GIVGLFSALSLL stands 0.706 ± 0.1. Under GIWVMVSVCSIA stands 0.537 ± 0.082; under GIWVWRGARSVG, 0.745 ± 0.054. Regarding GIYCSFSCKPCP, the protein stability index was determined as 0.6699 ± 0.0042. Under GKAKGRESGDRQ stands 0.678 ± 0.039. GKKKKKERKHGA displayed a protein stability index of 0.7351 ± 0.0055.

The sequence GKKKRKTKGKNR yielded a protein stability index of 0.663 ± 0.035.

With GKKKVKEWKKQM, the protein stability index was 0.604 ± 0.025. The sequence GKKRFENKKEKY came in with a protein stability index of 0.762 ± 0.12. GKMQIRRFISRS showed a protein stability index of 0.67 ± 0.0088. Next, GKPSEMSMREDS: 0.704 ± 0.019; GKRHSYSIISSV: 0.668 ± 0.061. GKRLKKTRTKKS: the protein stability index stood at 0.704 ± 0.059. Next, GKRLRFNRRTRA: 0.662 ± 0.11; GKVTRGTRRGGK: 0.66901 ± 0.0003; GLADPPNSRPAG: 0.673 ± 0.05. Next, GLASFVMQVAPF: 0.705 ± 0.008. Under GLDEAYVSRNIN stands 0.647 ± 0.011; under GLDRCFTSFYSI, 0.702 ± 0.059; under GLFSTRLFCTFL, 0.635 ± 0.026. For GLGEGLVCFLLG, the protein stability index is 0.73 ± 0.056. Next, GLGGRGRRASEW: 0.664 ± 0.071; GLGKFSALSLVV: 0.658 ± 0.044; GLGLGLSGGAML: 0.665 ± 0.069.

The sequence GLGMIIQNIIHS registered a protein stability index of 0.642 ± 0.026. On to GLGPMPRGTSTI, for which the protein stability index is 0.692 ± 0.1.

The sequence GLGRWGCLEGLG gave a protein stability index of 0.716 ± 0.071. Under GLGTAFGAADTV stands 0.693 ± 0.012. Under GLGVCSPRFLVL stands 0.763 ± 0.15; under GLGVWDLRLGWG, 0.701 ± 0.011.

Consider GLHSSNQLGALY, for which the protein stability index was 0.677 ± 0.036. Under GLLCSKTCCAGV stands 0.6453 ± 0.0024; under GLLDGEILKRRI, 0.6978 ± 0.0053. Next, GLLEGGLWVWGL: 0.692 ± 0.04; GLLQRCGAWRGS: 0.656 ± 0.04; GLMAIKVNLNHS: 0.619 ± 0.032. Next, GLPFPPGPIFVS: 0.743 ± 0.19. Sequence GLPPPPQPLPHA yielded a protein stability index of 0.726 ± 0.14. Next, GLPPPSPPVPLL: 0.683 ± 0.043. Next, GLRPPGLRLGSL: 0.6475 ± 0.0047; GLRPPPLRPAPP: 0.704 ± 0.08. As for GLRSDIGQVTHP, the protein stability index was determined as 0.635 ± 0.066.

In the case of GLSEPWVFFLRC, the protein stability index stood at 0.64 ± 0.012.

Sequence GLSRAWVAGVRG showed a protein stability index of 0.735 ± 0.037. Under GLVCSHLRTAGS stands 0.6857 ± 0.0063; under GLVRWRWGDRPS, 0.56 ± 0.066. Under GLVSALSGLLTP stands 0.651 ± 0.089; under GLWQRVGIVIGC, 0.58 ± 0.017; under GLYRQRVCLRSG, 0.6097 ± 0.0036. For GMAKGWHCESSS, the protein stability index is 0.716 ± 0.041. Next, GMLGVIGGKVGR: 0.699 ± 0.052; GMQVRNTKERRG: 0.714 ± 0.02; GMRFDTERKWLL: 0.695 ± 0.084. GMSFALSVYFFP had a protein stability index of 0.601 ± 0.01.

Consider GMVRVRSIATHG, for which the protein stability index was found to be 0.597 ± 0.034. With GNFAGLTRDRGP, the protein stability index came out at 0.674 ± 0.052. Under GNFIGSWLHTVD stands 0.811 ± 0.11; under GNGEGRKPPRPP, 0.619 ± 0.014. Under GNKKRDSDKIKE stands 0.6054 ± 0.0028.

GNLFIGLLHITC: the protein stability index is 0.5753 ± 0.0034. Under GNLVSFCTKKGA stands 0.722 ± 0.014. GNPDFQVTKNPY displayed a protein stability index of 0.67 ± 0.078. Next, GNQAILGRYLSV: 0.623 ± 0.051; GNVAMRKNIIGL: 0.674 ± 0.057; GNVNCNLRRYYI: 0.766 ± 0.086. Next, GPAAPAGNPETV: 0.6694 ± 0.0043.
